In patent US20200247855A1, “THERAPY AND DIAGNOSTICS” (OXFORD UNIVERSITY INNOVATION LIMITED, priority 2017, published 2020):

T1: CCL14_HUMAN (Homo sapiens, UniProt Q16627)
T1 sequence (Q16627 20-93): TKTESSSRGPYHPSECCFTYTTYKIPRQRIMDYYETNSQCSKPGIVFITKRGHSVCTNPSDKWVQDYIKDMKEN

T2: CCL16_HUMAN (Homo sapiens, UniProt O15467)
T2 sequence (O15467 24-120): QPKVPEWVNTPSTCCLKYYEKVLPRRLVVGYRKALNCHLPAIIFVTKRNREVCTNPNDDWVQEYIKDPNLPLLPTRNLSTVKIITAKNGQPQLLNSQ

T3: CCL18_HUMAN (Homo sapiens, UniProt P55774)
T3 sequence (P55774 21-89): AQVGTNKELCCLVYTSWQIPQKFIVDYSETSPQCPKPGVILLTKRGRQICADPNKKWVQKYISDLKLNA

T4: CCL24_HUMAN (Homo sapiens, UniProt O00175)
T4 sequence (O00175 27-119): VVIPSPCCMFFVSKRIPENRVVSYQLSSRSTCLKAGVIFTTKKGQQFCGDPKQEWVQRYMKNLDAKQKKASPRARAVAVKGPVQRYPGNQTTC

T5: CCL25_HUMAN (Homo sapiens, UniProt O15444)
T5 sequence (O15444 24-150): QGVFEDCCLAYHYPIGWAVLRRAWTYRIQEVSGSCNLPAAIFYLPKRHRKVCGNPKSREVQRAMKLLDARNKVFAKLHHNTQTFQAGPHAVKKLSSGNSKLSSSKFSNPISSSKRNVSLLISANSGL


Assays:
[1] = target: CCL20_HUMAN (Homo sapiens, UniProt P78556); settings: data obtained from publications [20-22,32]; cited from earlier work
[2] = target: T1, CCL14_HUMAN; settings: read-out: Kd, CCL14_HUMAN, previously described evasins; data obtained from publications [20-22,32]; cited from earlier work
[3] = target: T2, CCL16_HUMAN; settings: read-out: Kd, CCL16_HUMAN, previously described evasins; data obtained from publications [20-22,32]; cited from earlier work
[4] = target: T3, CCL18_HUMAN; settings: read-out: Kd, CCL18_HUMAN, previously described evasins; data obtained from publications [20-22,32]; cited from earlier work
[5] = target: T4, CCL24_HUMAN; settings: read-out: Kd, CCL24_HUMAN, previously described evasins; data obtained from publications [20-22,32]; cited from earlier work
[6] = target: T5, CCL25_HUMAN; settings: read-out: Kd, CCL25_HUMAN, previously described evasins; data obtained from publications [20-22,32]; cited from earlier work
[7] = target: CCL26_HUMAN (Homo sapiens, UniProt Q9Y258); settings: read-out: Kd, CCL26_HUMAN, previously described evasins; data obtained from publications [20-22,32]; cited from earlier work
[8] = system: leucocyte recruitment to the zymosan air-pouch; assay: Zymosan subcutaneous dorsal air-pouch inflammation model; assay type: in vivo; settings: 5 mg/kg, exudate at 24 hours, mouse
Procedure: Zymosan or PBS (control) was injected into the air-pouch (a.p.) on day 6. Peptide or protein (blue) was injected into the air-pouch on day 6 at the time of zymosan injection and repeated 9 hours later. Air-pouch exudate was collected and analysed on day 7 by flow cytometry (FC).
G. Experimental design to assess efficacy of intraperitoneally administered peptide. This is identical to that used for locally administered peptide (above) except that peptide or protein was administered intraperitoneally (i.p.).
C57BL/6J male mice (25-30 g, 8-10-week-old) were obtained from Charles River (UK). They were group housed in temperature and humidity-controlled rooms, kept on a 12-hr light-dark cycle, and provided with food and water ad libitum. Air pouches were established at the dorsal side of the mice as described (Duarte, D. B. et al., Curr Protoc Pharmacol [2016]). […] Total numbers of leucocytes, neutrophils, monocytes, T-cells and eosinophils were counted using an Attune N×T flow cytometer following staining with cell specific antibodies. […]
To characterize the inflammatory subsets in the pouch, multi-colour fluorescence cell staining was conducted using the combination of the following antibodies for various immune cells. […] Data were analysed using FlowJo by an observer blinded to the treatment received. […]

CCL26_HUMAN, sequence (Q9Y258 24-94): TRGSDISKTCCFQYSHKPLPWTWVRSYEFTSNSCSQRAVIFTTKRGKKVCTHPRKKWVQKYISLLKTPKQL
CCL20_HUMAN, sequence (P78556 27-96): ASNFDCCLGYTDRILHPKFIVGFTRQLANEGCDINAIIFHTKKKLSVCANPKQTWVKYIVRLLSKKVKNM

Molecule | Kd, CCL20_HUMAN, previously described evasins [1] | Kd [2] [pM] | Kd [3] [pM] | Kd [4] [pM] | Kd [5] [pM] | Kd [6] [pM] | Kd [7] [pM] | Number of neutrophils, eosinophils, monocytes and T-cells recruited to the air-pouch, local administration ([8]; injected into the air-pouch at 0 and 9 h) | Number of neutrophils, eosinophils, monocytes and T-cells recruited to the air-pouch, intraperitoneal administration ([8]; injected intraperitoneally at 0 and 9 h)
EVASIN4: previously described tick CKBP evasin 4, from Rhipicephalus sanguineus (protein, listed as Rhipicephalus sanguineus) EVPQMTSSSAPDLEEEDDYTAYAPLTCYFTNSTLGLLAPPNCSVLCNSTTTWFNETSPNNASCLLTVDFLTQDAILQENQPYNCSVGHCDNGTCAGPPRHAQCW | No Binding | 140 | 260 | 30 | 410 | 69600 | 880 |  | 
P672_RHIPU: tick CKBP, Rhipicephalus pulchellus (protein, listed as Rhipicephalus pulchellus) VCEVSEQEGVGEDNATEDEDYEDFFKPVTCYFANSTVGPLRPPNCTVVCTNNTAWWNDTKSDGGHCYSEYRPEKRTHSREIYNCTIGVCGNGTCIANHTYADCW |  |  |  |  |  |  |  | strong and significant reduction | substantial and significant reduction
